The text below walks through data of article PMC5352116, “Quinacrine induces apoptosis in cancer cells by forming a functional bridge between TRAIL-DR5 complex and modulating the mitochondrial intrinsic cascade” (Oncotarget, 2016).

The target in the assay is T1, Death Receptor 5 (DR5) (human (endogenous in MCF-10A-Tr), UniProt O14763 56-440).
T1 construct: Death receptor 5 (DR5, TRAIL-R2/Killer), endogenous in MCF-10A-Tr cells (derived from the human breast epithelial line MCF-10A); precipitated with an anti-DR5 antibody; also called TRAIL-R2; Killer; source: endogenous, MCF-10A-Tr cells (on cells; RIPA lysate)
Put plainly: co-IP; DISC analysis: MCF-10A-Tr cells untreated or treated with QC, TRAIL or TRAIL (10 ng/mL, 3 h) then QC (2.5 uM, 48 h); RIPA lysate, pre-cleared with sepharose-4B beads, immunoprecipitated with anti-DR5 antibody at 4°C overnight; western blot. The following applies: partners not purified. In general terms: A western blot detects proteins with antibodies after separation by electrophoresis.

B1: Fas-Associated protein with Death Domain (FADD) (natural protein, human (endogenous in MCF-10A-Tr), UniProt Q13158 1-208, looked up)
chain: MDPFLVLLHSVSSSLSSSELTELKFLCLGRVGKRKLERVQSGLDLFSMLLEQNDLEPGHTELLRELLASLRRHDLLRRVDDFEAGAAAGAAPGEEDLCAAFNVICDNVGKDWRRLARQLKVSDTKIDSIEDRYPRNLTERVRESLRIWKNTEKENATVAHLVGALRSCQMNLVADLVQEVQQARDLQNRSGAMSPMSWNSDASTSEAS
notes: FADD, adaptor protein of the DISC, endogenous in MCF-10A-Tr cells; source: endogenous, MCF-10A-Tr lysate
B1: the “fold level in the DISC (anti-DR5 immunoprecipitate), TRAIL+QC treated against untreated cells” value worked out at 8 fold.
